This note sets out measurements from article PMC2526197 (The Journal of Experimental Medicine, 2008).

Holding throughout (assay): SPR
(In general: SPR reads the build-up and loss of mass on a sensor chip optically.)

One experiment addresses T1, Evasin-1 (Rhipicephalus sanguineus, UniProt P0C8E7 21-114).
T1 sequence (looked up): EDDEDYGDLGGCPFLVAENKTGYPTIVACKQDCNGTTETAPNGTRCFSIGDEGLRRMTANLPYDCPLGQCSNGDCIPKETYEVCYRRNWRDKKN

In a further experiment the target is T2, MIP-2 (mouse, UniProt P10889 28-100).
T2 sequence (looked up): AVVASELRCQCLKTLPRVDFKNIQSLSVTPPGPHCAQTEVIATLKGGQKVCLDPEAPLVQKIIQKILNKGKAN

Another experiment deals with T3, CXCL1 (human, UniProt P09341 35-107).
T3 sequence (looked up): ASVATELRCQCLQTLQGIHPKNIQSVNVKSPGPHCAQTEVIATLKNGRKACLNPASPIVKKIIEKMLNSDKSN

For a further experiment, the target named is T4, KC (mouse, UniProt P12850 25-96).
T4 sequence (looked up): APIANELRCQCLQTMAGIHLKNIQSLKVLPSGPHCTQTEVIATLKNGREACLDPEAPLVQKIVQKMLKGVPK

B1: murine MIP-1β (ligand, mouse, UniProt P14097 24-92, looked up)
chain: APMGSDPPTSCCFSYTSRQLHRSFVMDYYETSSLCSKPAVVFLTKRGRQICANPSEPWVTEYMSDLELN
For orientation: Kd means the equilibrium constant for the complex coming apart. A high value points to lower affinity. Broadly, the koff is the rate constant with which the complex falls apart. Low readings indicate a long-lived complex, high ones a short-lived complex. As usually defined, the kon is the second-order rate constant of association. Read a low kon as slow association. B1: in the experiment with Evasin-1, the Kd is 0.15 nM, the koff was 0.00058 ± 0.12 s⁻¹ and the kon is 3.84e+06 ± 1.42 M⁻¹ s⁻¹.

B2: Evasin-3 (HEK) (natural protein, Rhipicephalus sanguineus, UniProt P0C8E8 21-86, looked up)
chain: LVSTIESRTSGDGADNFDVVSCNKNCTSGQNECPEGCFCGLLGQNKKGHCYKIIGNLSGEPPVVRR
modifications: also: extensively glycosylated
In the experiment with MIP-2, B2 gave a Kd of 0.4 nM, a koff of 0.00033 ± 0.11 s⁻¹ and a kon of 790000 ± 0.9 M⁻¹ s⁻¹. In the experiment with CXCL1, this molecule yielded a Kd of 0.34 nM, a koff of 0.00142 ± 0.36 s⁻¹ and a kon of 3.95e+06 ± 4.23 M⁻¹ s⁻¹. For the same molecule, in the experiment with KC, the affinity, expressed as Kd, was 2.25 nM; the koff is 0.00144 ± 0.35 s⁻¹; the kon was found to be 640000 ± 0.58 M⁻¹ s⁻¹.

B3: Evasin-3 (E. coli) (natural protein, Rhipicephalus sanguineus, UniProt P0C8E8 21-86, looked up)
chain: B2 chain
For the molecule B3, in the experiment with MIP-2, the Kd was 0.64 nM, the koff was 0.00065 ± 0.25 s⁻¹ and the kon came to 1.02e+06 ± 0.56 M⁻¹ s⁻¹. In the experiment with CXCL1, this molecule returned a Kd of 0.85 nM, an off-rate (koff) of 0.00222 ± 0.49 s⁻¹ and a kon of 2.61e+06 ± 0.69 M⁻¹ s⁻¹. In the experiment with KC, this molecule came in with a Kd of 5.78 nM, a koff of 0.00185 ± 0.43 s⁻¹ and a kon of 320000 ± 0.17 M⁻¹ s⁻¹.

B4: murine MIP-1α (ligand, mouse, UniProt P10855 24-92, looked up)
chain: APYGADTPTACCFSYSRKIPRQFIVDYFETSSLCSQPGVIFLTKRNRQICADSKETWVQEYITDLELNA
Regarding B4, in the experiment with Evasin-1, the Kd turned out to be 0.08 nM, the off-rate constant (koff) was 0.00118 ± 1.07 s⁻¹ and the kon was found to be 1.56e+07 ± 16 M⁻¹ s⁻¹.

B5: CCL3 (ligand, human, UniProt P10147 24-92, looked up)
chain: SLAADTPTACCFSYTSRQIPQNFIADYFETSSQCSKPGVIFLTKRSRQVCADPSEEWVQKYVSDLELSA
In the experiment with Evasin-1, B5 displayed a Kd of 0.12 nM, a koff of 0.00243 ± 0.61 s⁻¹ and a kon of 1.38e+07 ± 3.54 M⁻¹ s⁻¹.

B6: CCL4 (ligand, human, UniProt P13236 24-92, looked up)
chain: APMGSDPPTACCFSYTARKLPRNFVVDYYETSSLCSQPAVVFQTKRSKQVCADPSESWVQEYVYDLELN
In the experiment with Evasin-1, B6 gave a Kd of 0.51 nM, a koff of 0.0022 ± 0.18 s⁻¹ and a kon of 4.29e+06 ± 2.58 M⁻¹ s⁻¹.

B7: CCL3L1 (ligand, human, UniProt P16619 24-93, looked up)
chain: APLAADTPTACCFSYTSRQIPQNFIADYFETSSQCSKPSVIFLTKRGRQVCADPSEEWVQKYVSDLELSA
In the case of B7, in the experiment with Evasin-1, the Kd turned out to be 0.05 nM, the koff is 0.00067 ± 0.13 s⁻¹ and the kon came out at 1.32e+07 ± 2.9 M⁻¹ s⁻¹.
